Where two headings read alike, the source gives them in different places. Peptide text beside a SMILES is read from it. * marks the point of attachment. DOTA = O=C(O)CN1CCN(CC(=O)O)CCN(CC(=O)*)CCN(CC(=O)O)CC1
Experiment: Biodistribution experiments in normal mice
Format: in vivo, ddY mice
Conditions: for F/B ratio (Femur:blood ratio) / tissue uptake dose at 1 h / tissue uptake dose at 3 h / tissue uptake dose at 10 min: male ddY mice, no pretreatment, mean (SD) for four or five animals; for tissue uptake dose at 1 h / tissue uptake dose at 3 h / tissue uptake dose at 10 min: mouse, in vivo, iv, 37 kBq/100 uL, total radioactivity
Method: Experiments with animals were conducted in strict accordance with the Guidelines for the Care and Use of Laboratory Animals of Kanazawa University. The animal experimental protocols used were approved by the Committee on Animal Experimentation of Kanazawa University (Permit Number: AP-132633). Biodistribution experiments were performed after an intravenous administration of each diluted tracer solution (37 kBq/100 µL) to 6-week-old male ddY mice (27–32 g, Japan SLC, Inc., Hamamatsu, Japan). To investigate the effect of an excess amount of bisphosphonate on biodistribution, alendronate (20 mg/kg) was intravenously administered to mice 1 minute before the intravenous injection of ^67Ga-DOTA-(Asp)14 or ^67Ga-DOTA-Bn-SCN-HBP. Four to six mice each were sacrificed by decapitation at 10, 60, and 180 minutes post-injection. Tissues of interest were removed and weighed. Complete left femurs were isolated as representative bone samples, radioactivity was determined using an auto well gamma counter, and counts were corrected for background radiation and physical decay during counting.

For `O=C(O)C[C@H](NC(=O)[C@H](CC(=O)O)NC(=O)[C@H](CC(=O)O)NC(=O)[C@H](CC(=O)O)NC(=O)[C@H](CC(=O)O)NC(=O)[C@H](CC(=O)O)NC(=O)[C@H](CC(=O)O)NC(=O)[C@H](CC(=O)O)NC(=O)[C@H](CC(=O)O)NC(=O)[C@H](CC(=O)O)NC(=O)[C@H](CC(=O)O)NC(=O)CN1CCN(CC(=O)O)CCN(CC(=O)O)CCN(CC(=O)O)CC1)C(=O)O` [67Ga-DOTA-(Asp)11, metal not drawn] ({DOTA}-DDDDDDDDDDD-OH), the “F/B ratio (Femur:blood ratio)” value (10 min after i.v. administration) was 8.71 (0.73), the “F/B ratio (Femur:blood ratio)” value (60 min after i.v. administration) was 156.07 (45.00) and the “F/B ratio (Femur:blood ratio)” value (180 min after i.v. administration) was 501.32 (156.89). For the same molecule, the tissue uptake dose at 1 h (male, ddY, Blood, 60 min after i.v. administration, read-out: Radioactivity in Blood) was 0.11 %ID, the tissue uptake dose at 3 h (male, ddY, Blood, 180 min after i.v. administration, read-out: Radioactivity in Blood) was 0.03 %ID and the tissue uptake dose at 10 min (male, ddY, Bone (complete left femur), 10 min after i.v. administration, read-out: Radioactivity in Bone (Femur)) was 13.1 %ID. The tissue uptake dose at 1 h (male, ddY, Bone (complete left femur), 60 min after i.v. administration, read-out: Radioactivity in Bone (Femur)) was 16.3 %ID, the tissue uptake dose at 3 h (male, ddY, Bone (complete left femur), 180 min after i.v. administration, read-out: Radioactivity in Bone (Femur)) was 13.9 %ID and the tissue uptake dose at 10 min (male, ddY, Brain, 10 min after i.v. administration, read-out: Radioactivity in Brain) was 0.05 %ID. For the same molecule, the tissue uptake dose at 1 h (male, ddY, Brain, 60 min after i.v. administration, read-out: Radioactivity in Brain) was 0.02 %ID, the tissue uptake dose at 3 h (male, ddY, Brain, 180 min after i.v. administration, read-out: Radioactivity in Brain) was 0.01 %ID and the tissue uptake dose at 10 min (male, ddY, Heart, 10 min after i.v. administration, read-out: Radioactivity in Heart) was 0.55 %ID. It also gave a tissue uptake dose at 1 h (male, ddY, Heart, 60 min after i.v. administration, read-out: Radioactivity in Heart) of 0.08 %ID, a tissue uptake dose at 3 h (male, ddY, Heart, 180 min after i.v. administration, read-out: Radioactivity in Heart) of 0.02 %ID and a tissue uptake dose at 10 min (male, ddY, Kidney, 10 min after i.v. administration, read-out: Radioactivity in Kidney) of 16 %ID. For the same molecule, the tissue uptake dose at 1 h (male, ddY, Kidney, 60 min after i.v. administration, read-out: Radioactivity in Kidney) was 1.76 %ID, the tissue uptake dose at 3 h (male, ddY, Kidney, 180 min after i.v. administration, read-out: Radioactivity in Kidney) was 0.8 %ID and the tissue uptake dose at 10 min (male, ddY, Large-intestine, 10 min after i.v. administration, read-out: Radioactivity in Large-intestine) was 0.27 %ID. For the same molecule, the tissue uptake dose at 1 h (male, ddY, Large-intestine, 60 min after i.v. administration, read-out: Radioactivity in Large-intestine) was 0.06 %ID, the tissue uptake dose at 3 h (male, ddY, Large-intestine, 180 min after i.v. administration, read-out: Radioactivity in Large-intestine) was 0.13 %ID and the tissue uptake dose at 10 min (male, ddY, Liver, 10 min after i.v. administration, read-out: Radioactivity in Liver) was 0.44 %ID. For the same molecule, the tissue uptake dose at 1 h (male, ddY, Liver, 60 min after i.v. administration, read-out: Radioactivity in Liver) was 0.07 %ID, the tissue uptake dose at 3 h (male, ddY, Liver, 180 min after i.v. administration, read-out: Radioactivity in Liver) was 0.05 %ID and the tissue uptake dose at 10 min (male, ddY, Lung, 10 min after i.v. administration, read-out: Radioactivity in Lung) was 1.11 %ID. The tissue uptake dose at 1 h (male, ddY, Lung, 60 min after i.v. administration, read-out: Radioactivity in Lung) was 0.12 %ID, the tissue uptake dose at 3 h (male, ddY, Lung, 180 min after i.v. administration, read-out: Radioactivity in Lung) was 0.04 %ID and the tissue uptake dose at 10 min (male, ddY, Muscle, 10 min after i.v. administration, read-out: Radioactivity in Muscle) was 0.48 %ID. For the same molecule, the tissue uptake dose at 1 h (male, ddY, Muscle, 60 min after i.v. administration, read-out: Radioactivity in Muscle) was 0.13 %ID, the tissue uptake dose at 3 h (male, ddY, Muscle, 180 min after i.v. administration, read-out: Radioactivity in Muscle) was 0.08 %ID and the tissue uptake dose at 10 min (male, ddY, Pancreas, 10 min after i.v. administration, read-out: Radioactivity in Pancreas) was 0.62 %ID. The tissue uptake dose at 1 h (male, ddY, Pancreas, 60 min after i.v. administration, read-out: Radioactivity in Pancreas) was 0.07 %ID, the tissue uptake dose at 3 h (male, ddY, Pancreas, 180 min after i.v. administration, read-out: Radioactivity in Pancreas) was 0.05 %ID and the tissue uptake dose at 10 min (male, ddY, Small-intestine, 10 min after i.v. administration, read-out: Radioactivity in Small-intestine) was 0.41 %ID. For the same molecule, the tissue uptake dose at 1 h (male, ddY, Small-intestine, 60 min after i.v. administration, read-out: Radioactivity in Small-intestine) was 0.27 %ID, the tissue uptake dose at 3 h (male, ddY, Small-intestine, 180 min after i.v. administration, read-out: Radioactivity in Small-intestine) was 0.05 %ID and the tissue uptake dose at 10 min (male, ddY, Spleen, 10 min after i.v. administration, read-out: Radioactivity in Spleen) was 0.31 %ID. For the same molecule, the tissue uptake dose at 1 h (male, ddY, Spleen, 60 min after i.v. administration, read-out: Radioactivity in Spleen) was 0.09 %ID, the tissue uptake dose at 3 h (male, ddY, Spleen, 180 min after i.v. administration, read-out: Radioactivity in Spleen) was 0.04 %ID and the tissue uptake dose at 10 min (male, ddY, Stomach (footnote b), 10 min after i.v. administration, read-out: Radioactivity in Stomach) was 0.21 %ID. The tissue uptake dose at 1 h (male, ddY, Stomach (footnote b), 60 min after i.v. administration, read-out: Radioactivity in Stomach) was 0.18 %ID, the tissue uptake dose at 3 h (male, ddY, Stomach (footnote b), 180 min after i.v. administration, read-out: Radioactivity in Stomach) was 0.04 %ID and the tissue uptake dose at 10 min (Blood, 10 min after i.v. administration (37 kBq/100 µL), gamma counter, read-out: Radioactivity in Blood) was 1.51 %ID. For the same molecule, the “accumulation of radioactivity in the femur (in words)” value (normal mice, i.v.) was “higher accumulation”.

From PMC3877283, “Development of Novel Radiogallium-Labeled Bone Imaging Agents Using Oligo-Aspartic Acid Peptides as Carriers” (PLoS ONE, 2013)
